Data as given in article doi:10.1101/2023.05.23.541938.

Molecular target: TgPKS2 thioester reductase domain (TgTR) (Toxoplasma gondii)
Test: ITC

Question: How did the Kd turn out when holo-TgACP4 (domain or fragment) was run?
Answer: The Kd was 5.75 µM.
